According to patent US20240327522A1 (Genentech, published 2024):

What was measured:
[1] = target: T1, human αvβ5 (human, UniProt P06756 31-992; P18084 24-719); assay: SPR binding assay, sample hu.aVb1,3,5,6
T1 construct: Counter-screen integrin; construct not described; also called hu.aVb5; αV05

[2] = target: T2, recombinant human αvβ8 protein (PARS-17102) (human); assay: SPR, Biacore T200, antibody captured on Protein A chip, 3-fold analyte series 0-100 nM, 37 C, 1:1 model; average ± as printed
T2 construct: also called hu.aVb8.17102; not shown: C-terminal acid/basic coils and any purification tags
T2 alpha: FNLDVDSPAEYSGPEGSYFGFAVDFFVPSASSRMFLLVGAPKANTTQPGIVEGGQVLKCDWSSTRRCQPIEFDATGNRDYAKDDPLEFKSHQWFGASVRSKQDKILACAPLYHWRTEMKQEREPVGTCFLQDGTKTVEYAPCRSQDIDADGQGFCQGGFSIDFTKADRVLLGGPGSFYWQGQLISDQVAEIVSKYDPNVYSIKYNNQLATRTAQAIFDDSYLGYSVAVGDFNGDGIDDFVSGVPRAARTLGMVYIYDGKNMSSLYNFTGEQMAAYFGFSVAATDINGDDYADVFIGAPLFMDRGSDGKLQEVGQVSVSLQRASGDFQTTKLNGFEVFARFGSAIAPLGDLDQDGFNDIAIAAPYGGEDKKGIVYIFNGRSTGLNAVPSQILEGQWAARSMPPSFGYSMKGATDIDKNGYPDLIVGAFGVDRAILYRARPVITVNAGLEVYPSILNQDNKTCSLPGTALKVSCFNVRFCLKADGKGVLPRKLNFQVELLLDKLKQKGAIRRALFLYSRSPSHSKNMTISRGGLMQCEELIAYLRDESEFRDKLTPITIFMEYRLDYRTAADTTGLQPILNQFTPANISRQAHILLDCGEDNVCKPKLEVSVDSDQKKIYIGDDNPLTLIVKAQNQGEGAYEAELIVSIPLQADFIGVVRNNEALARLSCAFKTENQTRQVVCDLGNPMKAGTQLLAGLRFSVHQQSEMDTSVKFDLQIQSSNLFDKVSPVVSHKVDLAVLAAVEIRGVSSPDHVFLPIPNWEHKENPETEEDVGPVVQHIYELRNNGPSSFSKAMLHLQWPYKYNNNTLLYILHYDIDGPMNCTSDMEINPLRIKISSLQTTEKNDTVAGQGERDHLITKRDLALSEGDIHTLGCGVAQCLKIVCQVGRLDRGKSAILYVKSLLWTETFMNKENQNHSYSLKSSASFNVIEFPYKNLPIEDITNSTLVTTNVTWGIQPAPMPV
T2 beta: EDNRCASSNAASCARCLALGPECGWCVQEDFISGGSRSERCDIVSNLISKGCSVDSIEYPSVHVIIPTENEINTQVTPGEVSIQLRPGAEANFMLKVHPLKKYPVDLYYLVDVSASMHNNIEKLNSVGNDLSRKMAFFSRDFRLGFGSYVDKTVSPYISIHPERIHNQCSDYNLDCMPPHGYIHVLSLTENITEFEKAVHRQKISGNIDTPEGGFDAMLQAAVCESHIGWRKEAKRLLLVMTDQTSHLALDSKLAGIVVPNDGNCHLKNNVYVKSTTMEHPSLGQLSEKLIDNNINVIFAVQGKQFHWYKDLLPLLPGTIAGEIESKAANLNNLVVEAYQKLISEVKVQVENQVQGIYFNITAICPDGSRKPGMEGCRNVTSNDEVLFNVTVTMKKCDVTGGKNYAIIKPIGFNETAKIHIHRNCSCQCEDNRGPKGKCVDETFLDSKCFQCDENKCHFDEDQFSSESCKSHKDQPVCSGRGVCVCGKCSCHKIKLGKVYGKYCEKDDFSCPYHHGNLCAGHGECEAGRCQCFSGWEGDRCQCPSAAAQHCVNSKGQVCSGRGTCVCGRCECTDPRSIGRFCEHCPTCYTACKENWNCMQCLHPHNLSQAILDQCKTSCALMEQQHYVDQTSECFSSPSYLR
Protocol: (§1) The ability of the anti-αVP8-65 to bind to different αVβ8 proteins was assessed using SPR measurements (Karlsson et al. 1991) on a Biacore™ T200 (Cytiva Life Sciences; Marlborough, MA) instrument (Safsten et al. 2006). anti-αV08-65 was first captured on a Biacore™ Protein A biosensor chip (Cytiva Life Sciences) to achieve approximately 60 response units. Binding measurements were performed using a running buffer composed of 10 mM HEPES (pH 7.4), 150 mM NaCl, 0.5 mM CaCl₂), 0.5 mM MgCl₂, and 0.005% Surfactant P20 (Cytiva Life Sciences). A 3-fold dilution series of the analyte proteins (range, 0-100 nM in running buffer) was injected into the Biacore™ T200. All injections were performed over 180 seconds, with a dissociation time of 1200 seconds, at a flow rate of 100 μL/minute and a temperature of 37° C. Between sample injections, 10 mM glycine (pH 1.5) was injected to regenerate the sensor chip (twice, over 30 seconds at 10 μL/minute for each injection). To determine the binding kinetics and affinity constants of anti-αVP8-65 to the various species of the αVβ8 protein, the signal from the reference flow cell (FC1, with only protein A on the surface) was “double referenced” by subtracting the signal observed after injecting the sample over FC1, followed by subtracting the signal observed after injecting only running buffer. The kinetic constants were calculated using non-linear regression fitting of the data, according to a 1:1 Langmuir binding model, using Biacore™ Evaluation Software (Cytiva Life Sciences) for anti-αVP8-65 binding to recombinant human, cynomolgus monkey, mouse, and rat αVβ8 proteins.

[3] = target: T3, recombinant mouse αvβ8 protein (PARS-17103) (murine, UniProt P43406 31-988; Q0VBD0 43-681, limits assumed); assay: as above
T3 construct: Made in house; also called mu.aVb8.17103
Protocol: as §1

[4] = target: T4, recombinant cynomolgus monkey αvβ8 protein (PARS-19393) (cynomolgus monkey, UniProt A0A2K5WCD3 31-992; G7P0S0 43-684); assay: as above
T4 construct: also called cyno.aVb8-19393; cyno.aVb8
Protocol: as §1

[5] = target: T5, recombinant rat αvβ8 protein (PARS-22180) (rat, UniProt F1LZX9 31-987; A0A0G2JVU1 43-682); assay: as above
T5 construct: also called rat.aVb8
Protocol: as §1

T3 sequence (P43406 31-988 limits assumed, chain 1 of 2): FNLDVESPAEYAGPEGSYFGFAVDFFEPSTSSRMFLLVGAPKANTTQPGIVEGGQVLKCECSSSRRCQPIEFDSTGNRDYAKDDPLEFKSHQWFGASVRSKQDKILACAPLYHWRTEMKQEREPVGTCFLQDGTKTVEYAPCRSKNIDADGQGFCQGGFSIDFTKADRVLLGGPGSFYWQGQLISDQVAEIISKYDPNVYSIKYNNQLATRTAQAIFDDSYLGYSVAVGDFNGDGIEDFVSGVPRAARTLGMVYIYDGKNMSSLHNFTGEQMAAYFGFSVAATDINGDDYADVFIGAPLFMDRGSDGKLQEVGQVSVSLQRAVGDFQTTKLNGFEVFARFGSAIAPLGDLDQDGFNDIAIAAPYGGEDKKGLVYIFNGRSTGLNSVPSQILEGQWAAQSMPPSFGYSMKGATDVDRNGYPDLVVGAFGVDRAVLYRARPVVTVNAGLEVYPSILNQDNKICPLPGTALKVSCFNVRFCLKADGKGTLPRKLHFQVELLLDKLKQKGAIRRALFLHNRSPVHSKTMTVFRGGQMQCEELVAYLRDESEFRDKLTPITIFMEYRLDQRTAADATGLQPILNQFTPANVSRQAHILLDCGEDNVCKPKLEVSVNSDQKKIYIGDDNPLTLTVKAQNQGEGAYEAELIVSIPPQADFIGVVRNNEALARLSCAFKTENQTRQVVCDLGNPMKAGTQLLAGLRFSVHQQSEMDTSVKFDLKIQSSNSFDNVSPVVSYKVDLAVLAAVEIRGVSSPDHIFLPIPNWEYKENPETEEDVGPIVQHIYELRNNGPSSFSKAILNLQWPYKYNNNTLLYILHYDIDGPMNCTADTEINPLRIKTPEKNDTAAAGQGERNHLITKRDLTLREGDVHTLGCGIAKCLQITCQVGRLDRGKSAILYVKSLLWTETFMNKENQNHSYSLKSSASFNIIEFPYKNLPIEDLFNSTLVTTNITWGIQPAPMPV
T3 sequence (Q0VBD0 43-681 limits assumed, chain 2 of 2): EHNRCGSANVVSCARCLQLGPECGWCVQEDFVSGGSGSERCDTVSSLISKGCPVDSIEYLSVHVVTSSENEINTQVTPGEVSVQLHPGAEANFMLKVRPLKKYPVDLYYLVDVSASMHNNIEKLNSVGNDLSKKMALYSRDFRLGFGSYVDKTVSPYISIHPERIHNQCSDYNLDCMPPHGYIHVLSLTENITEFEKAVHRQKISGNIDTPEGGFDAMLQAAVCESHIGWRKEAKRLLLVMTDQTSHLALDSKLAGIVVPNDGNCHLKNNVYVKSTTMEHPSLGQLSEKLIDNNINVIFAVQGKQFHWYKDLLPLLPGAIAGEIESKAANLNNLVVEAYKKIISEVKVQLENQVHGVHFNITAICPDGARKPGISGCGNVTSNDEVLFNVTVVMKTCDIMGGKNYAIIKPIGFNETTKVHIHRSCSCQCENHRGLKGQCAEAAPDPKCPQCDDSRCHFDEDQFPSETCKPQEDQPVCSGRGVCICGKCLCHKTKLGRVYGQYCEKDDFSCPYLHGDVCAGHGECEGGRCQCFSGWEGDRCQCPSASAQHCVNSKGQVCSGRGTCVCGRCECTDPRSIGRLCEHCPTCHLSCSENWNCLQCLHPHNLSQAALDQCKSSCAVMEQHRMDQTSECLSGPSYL
T1 sequence (P18084 24-719 limits assumed, one chain of several): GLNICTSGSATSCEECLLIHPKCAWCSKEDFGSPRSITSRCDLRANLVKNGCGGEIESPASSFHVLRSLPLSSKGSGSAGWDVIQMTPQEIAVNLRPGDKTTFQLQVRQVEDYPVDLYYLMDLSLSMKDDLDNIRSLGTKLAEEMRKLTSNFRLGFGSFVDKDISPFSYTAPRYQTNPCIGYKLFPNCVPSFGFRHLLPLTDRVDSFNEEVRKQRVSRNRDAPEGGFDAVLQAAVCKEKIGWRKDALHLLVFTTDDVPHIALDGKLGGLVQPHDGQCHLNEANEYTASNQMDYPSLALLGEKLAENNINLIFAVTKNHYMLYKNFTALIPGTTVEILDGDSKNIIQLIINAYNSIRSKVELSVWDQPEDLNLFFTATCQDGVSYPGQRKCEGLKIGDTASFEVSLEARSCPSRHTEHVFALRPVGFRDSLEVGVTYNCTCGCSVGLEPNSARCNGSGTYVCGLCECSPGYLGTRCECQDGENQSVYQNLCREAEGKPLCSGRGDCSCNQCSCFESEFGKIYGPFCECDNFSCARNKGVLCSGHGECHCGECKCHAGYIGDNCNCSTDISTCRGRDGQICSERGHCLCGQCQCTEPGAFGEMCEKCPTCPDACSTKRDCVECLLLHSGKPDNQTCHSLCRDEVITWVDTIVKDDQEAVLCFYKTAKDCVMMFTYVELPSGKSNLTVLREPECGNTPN

binding result [1]: no binding
Kd [2]: 0.5 nM
koff [2]: 8.8e-05 s⁻¹
kon [2]: 175000 M⁻¹ s⁻¹
Kd [3]: 0.94 nM
koff [3]: 0.000108 s⁻¹
kon [3]: 140000 M⁻¹ s⁻¹
Kd [4]: 0.7 nM
koff [4]: 0.00013 s⁻¹
kon [4]: 180000 M⁻¹ s⁻¹
Kd [5]: 1 nM
koff [5]: 0.00011 s⁻¹
kon [5]: 104000 M⁻¹ s⁻¹
B1: Hu.aVb8-65.H15L2 (aVb8-65.H15L2.hIgG1.LALAPG) (antibody, V domains shown)
VH: EVQLLESGGGLVQPGGSLRLSCAASGIDLSNYAMIWVRQAPGKGLEWVGIISSSDRIWYASWVKGRFTISRDNSKNTLYLQMNSLRAEDTAVYYCSRSVSNSYFDGWNLWGQGTLVTVSS
VL: DIQMTQSPSSVSASVGDRVTITCQASENINSLLAWYQQKPGKAPKLLIYRASTLASGVPSRFSGSGSGTDFTLTISSLQPEDFATYYCQSNYGFTGSGAFFYGFGQGTKVEIKR
notes: Human IgG1 LALAPG; also called PARS-20475-65 (IH) aVb8-65.H15L2.hIgG1.LALAPG; humanized αvβ8-65
